Experiments:
Test in all cases: cross-linking; disulfide crosslinking: reduced proteins alone or mixed at 30 uM per monomer each, 1 h at 42°C, then dialysis against 50 mM Tris/HCl pH 7.4, 50 mM KCl, 1 mM MgCl2, 0.1 mM PMSF at 4, 15 or 37°C; non-reducing SDS PAGE
Settings in all cases: both partners purified
E41K mutant of HspB1 = target: T1, E41K mutant of HspB1 (human, UniProt P04792 1-205, E41K)
T1 construct: human HspB1 with the disease-associated replacement E41K, in pET23b (NdeI/XhoI); Mutation occurs in patients with distal hereditary motor neuropathy; source: E. coli BL21 (DE3) pLysS, purified (ammonium sulfate fractionation, HiTrap Q, Superdex 200)
T1 sequence (P04792 whole entry E41K): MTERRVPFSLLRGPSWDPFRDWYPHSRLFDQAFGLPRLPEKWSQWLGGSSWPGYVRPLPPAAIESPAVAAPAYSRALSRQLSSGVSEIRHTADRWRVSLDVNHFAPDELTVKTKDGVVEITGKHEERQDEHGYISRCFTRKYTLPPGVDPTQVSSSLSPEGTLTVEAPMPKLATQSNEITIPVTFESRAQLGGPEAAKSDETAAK

[1] = target: T2, wild type HspB1 (human small heat shock protein HspB1) (human, UniProt P04792 1-205)
T2 construct: human small heat shock protein HspB1, wild type, cDNA in pET23b; also called WT HspB1; WT; source: E. coli BL21 (DE3) pLysS, purified (ammonium sulfate fractionation, HiTrap Q, Superdex 200)
T2 sequence (P04792 whole entry): as the sequence (P04792 whole entry E41K) above, with K41E counted along it

P39L mutant of HspB1 = target: T3, P39L mutant of HspB1 (human, UniProt P04792 1-205, P39L)
T3 construct: human HspB1 with the disease-associated replacement P39L, in pET23b (NdeI/XhoI); Mutation occurs in patients with type II Charcot-Marie-Tooth disease or dHMN; source: E. coli BL21 (DE3) pLysS, purified (ammonium sulfate fractionation, HiTrap Q, Superdex 200)
T3 sequence (P04792 whole entry P39L): as the sequence (P04792 whole entry E41K) above, with P39L, K41E counted along it

G34R mutant of HspB1 = target: T4, G34R mutant of HspB1 (human, UniProt P04792 1-205, G34R)
T4 construct: human HspB1 with the disease-associated replacement G34R, in pET23b (NdeI/XhoI); Mutation occurs in patients with distal hereditary motor neuropathy; source: E. coli BL21 (DE3) pLysS, purified (ammonium sulfate fractionation, HiTrap Q, Superdex 200)
T4 sequence (P04792 whole entry G34R): as the sequence (P04792 whole entry E41K) above, with G34R, K41E counted along it

- binding result (E41K mutant of HspB1): binds
- binding result [1]: binds
- binding result (P39L mutant of HspB1): binds
- binding result (G34R mutant of HspB1): binds
B1: double mutant of HspB6 containing the substitutions C46S/E116C (natural protein, human, UniProt O14558 1-160, looked up)
chain: MEIPVPVQPSWLRRASAPLPGLSAPGRLFDQRFGEGLLEAELAALSPTTLAPYYLRAPSVALPVAQVPTDPGHFSVLLDVKHFSPEEIAVKVVGEHVEVHARHEERPDEHGFVARCFHRRYRLPPGVDPAAVTSALSPEGVLSIQAAPASAQAPPPAAAK
notes: HspB6 lacking the natural Cys of the N-terminal domain and with a single Cys at the position homologous to Cys137 of HspB1; also called Cys mutant of HspB6; Cys-mutant of HspB6; source: expressed and purified as described earlier [36]

Reference: article PMC4429025, “Characterization of Mutants of Human Small Heat Shock Protein HspB1 Carrying Replacements in the N-Terminal Domain and Associated with Hereditary Motor Neuron Diseases” (PLoS ONE, 2015)
